Measured values published in patent US20180155451A1 (published 2018).

T1: FcγRIIa R (human, UniProt P12318 34-217)
T1 construct: extracellular domain; Soluble extracellular domain with C-terminal His tag, expressed in FreeStyle293 cells; also called FcgRIIa R; FcγRIIa type R; not shown: His tag attached to the C terminus
T1 sequence (looked up): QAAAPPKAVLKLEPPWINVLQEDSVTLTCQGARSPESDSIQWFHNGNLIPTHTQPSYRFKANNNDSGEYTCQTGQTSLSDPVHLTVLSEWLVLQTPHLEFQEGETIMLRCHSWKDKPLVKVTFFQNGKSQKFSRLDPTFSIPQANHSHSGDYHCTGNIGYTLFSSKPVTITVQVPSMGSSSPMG

B1: GpH7-A5/GpH7-B3 variant K334_15Y/GpL16-k0 (antibody, human IgG1, kappa)
heavy 1: not shown
heavy 2: not shown
light: DIVMTQSPLSLPVTPGEPASISCQASESLVHSNRNTYLHWYLQKPGQSPQLLIYKVSNRFSGVPDRFSGSGSGTDFTLKISRVEAEDVGVYYCSQNTHVPPTFGQGTKVEIERTVAAPSVFIFPPSDEQLKSGTASVVCLLNNFYPREAKVQWKVDNALQSGNSQESVTEQDSKDSTYSLSSTLTLSKADYEKHKVYACEVTHQGLSSPVTKSFNRGEC
notes: heterodimerized; mutation in one H chain only; also called He Ab
B2: GpH7-A5/GpH7-B3 variant L328_07I/GpL16-k0 (antibody, human IgG1, kappa)
heavy 1: not shown
heavy 2: not shown
light: B1 light
notes: as for B1
B3: GpH7-B3 variant Y300_04F/GpL16-k0 (antibody, human IgG1, kappa)
heavy: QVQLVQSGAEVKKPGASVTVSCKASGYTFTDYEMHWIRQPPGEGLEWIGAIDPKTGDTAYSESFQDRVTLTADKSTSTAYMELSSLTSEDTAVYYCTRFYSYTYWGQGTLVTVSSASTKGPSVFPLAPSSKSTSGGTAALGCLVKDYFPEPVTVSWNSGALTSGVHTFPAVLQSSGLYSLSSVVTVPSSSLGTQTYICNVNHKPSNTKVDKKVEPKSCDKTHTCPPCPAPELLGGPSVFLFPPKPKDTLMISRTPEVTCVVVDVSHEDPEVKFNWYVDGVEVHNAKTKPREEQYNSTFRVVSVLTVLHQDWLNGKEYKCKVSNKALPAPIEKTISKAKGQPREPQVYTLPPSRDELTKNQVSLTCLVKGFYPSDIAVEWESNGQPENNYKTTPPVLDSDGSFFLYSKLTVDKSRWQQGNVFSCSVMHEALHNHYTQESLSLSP
light: B1 light
notes: homodimerized; mutation in both H chains; also called Ho Ab
B4: GpH7-A5/GpH7-B3 variant T335_16H/GpL16-k0 (antibody, human IgG1, kappa)
heavy 1: not shown
heavy 2: not shown
light: B1 light
notes: as for B1
B5: GpH7-A5/GpH7-B3 variant T335_09D/GpL16-k0 (antibody, human IgG1, kappa)
heavy 1: not shown
heavy 2: not shown
light: B1 light
notes: as for B1
B6: GpH7-A5/GpH7-B3 variant K326_16H/GpL16-k0 (antibody, human IgG1, kappa)
heavy 1: not shown
heavy 2: not shown
light: B1 light
notes: as for B1
B7: GpH7-B3 variant Y296_20W/GpL16-k0 (antibody, human IgG1, kappa)
heavy: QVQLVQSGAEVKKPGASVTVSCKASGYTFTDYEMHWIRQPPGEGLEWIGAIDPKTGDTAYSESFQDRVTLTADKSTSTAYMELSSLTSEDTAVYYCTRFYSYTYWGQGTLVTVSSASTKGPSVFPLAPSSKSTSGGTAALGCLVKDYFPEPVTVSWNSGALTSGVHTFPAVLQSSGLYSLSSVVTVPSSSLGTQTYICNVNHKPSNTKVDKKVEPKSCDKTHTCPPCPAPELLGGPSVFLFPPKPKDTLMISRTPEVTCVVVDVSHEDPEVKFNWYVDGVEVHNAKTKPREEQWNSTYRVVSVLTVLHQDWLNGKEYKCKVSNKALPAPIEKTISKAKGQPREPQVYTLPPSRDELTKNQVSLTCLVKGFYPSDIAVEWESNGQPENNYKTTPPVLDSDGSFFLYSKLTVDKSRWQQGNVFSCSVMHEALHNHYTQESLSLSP
light: B1 light
notes: as for B3
B8: GpH7-A5/GpH7-B3 variant G236_09D/GpL16-k0 (antibody, human IgG1, kappa)
heavy 1: not shown
heavy 2: not shown
light: B1 light
notes: as for B1
B9: GpH7-A5/GpH7-B3 variant L328_04F/GpL16-k0 (antibody, human IgG1, kappa)
heavy 1: not shown
heavy 2: not shown
light: B1 light
notes: as for B1
B10: GpH7-A5/GpH7-B3 variant L328_06M/GpL16-k0 (antibody, human IgG1, kappa)
heavy 1: not shown
heavy 2: not shown
light: B1 light
notes: as for B1
B11: GpH7-A5/GpH7-B3 variant I332_10E/GpL16-k0 (antibody, human IgG1, kappa)
heavy 1: not shown
heavy 2: not shown
light: B1 light
notes: as for B1
B12: GpH7-A5/GpH7-B3 variant S267_02A/GpL16-k0 (antibody, human IgG1, kappa)
heavy 1: not shown
heavy 2: not shown
light: B1 light
notes: as for B1
B13: GpH7-A5/GpH7-B3 variant K326_06M/GpL16-k0 (antibody, human IgG1, kappa)
heavy 1: not shown
heavy 2: not shown
light: B1 light
notes: as for B1
B14: GpH7-A5/GpH7-B3 variant T335_08L/GpL16-k0 (antibody, human IgG1, kappa)
heavy 1: not shown
heavy 2: not shown
light: B1 light
notes: as for B1
B15: GpH7-A5/GpH7-B3 variant H268_18N/GpL16-k0 (antibody, human IgG1, kappa)
heavy 1: not shown
heavy 2: not shown
light: B1 light
notes: as for B1
B16: GpH7-A5/GpH7-B3 variant K326_19Q/GpL16-k0 (antibody, human IgG1, kappa)
heavy 1: not shown
heavy 2: not shown
light: B1 light
notes: as for B1
B17: GpH7-B3 variant T335_19Q/GpL16-k0 (antibody, human IgG1, kappa)
heavy: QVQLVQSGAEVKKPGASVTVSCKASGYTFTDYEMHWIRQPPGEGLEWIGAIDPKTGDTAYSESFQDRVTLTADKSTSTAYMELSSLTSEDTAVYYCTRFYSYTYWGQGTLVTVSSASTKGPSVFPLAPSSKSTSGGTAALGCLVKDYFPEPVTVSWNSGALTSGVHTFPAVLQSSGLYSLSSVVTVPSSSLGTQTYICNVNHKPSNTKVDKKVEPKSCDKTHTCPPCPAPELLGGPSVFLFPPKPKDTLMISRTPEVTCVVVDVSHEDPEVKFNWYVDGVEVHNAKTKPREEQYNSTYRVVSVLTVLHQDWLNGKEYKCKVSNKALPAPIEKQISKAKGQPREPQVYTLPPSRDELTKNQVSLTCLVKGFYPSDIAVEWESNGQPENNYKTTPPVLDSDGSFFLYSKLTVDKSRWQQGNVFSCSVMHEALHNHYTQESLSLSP
light: B1 light
notes: as for B3
B18: GpH7-A5/GpH7-B3 variant L328_03V/GpL16-k0 (antibody, human IgG1, kappa)
heavy 1: not shown
heavy 2: not shown
light: B1 light
notes: as for B1
B19: GpH7-A5/GpH7-B3 variant H268_10E/GpL16-k0 (antibody, human IgG1, kappa)
heavy 1: not shown
heavy 2: not shown
light: B1 light
notes: as for B1
B20: GpH7-A5/GpH7-B3 variant K326_10E/GpL16-k0 (antibody, human IgG1, kappa)
heavy 1: not shown
heavy 2: not shown
light: B1 light
notes: as for B1
B21: GpH7-A5/GpH7-B3 variant K334_03V/GpL16-k0 (antibody, human IgG1, kappa)
heavy 1: not shown
heavy 2: not shown
light: B1 light
notes: as for B1
B22: GpH7-A5/GpH7-B3 variant S239_01G/GpL16-k0 (antibody, human IgG1, kappa)
heavy 1: not shown
heavy 2: not shown
light: B1 light
notes: as for B1
B23: GpH7-A5/GpH7-B3 variant L328_15Y/GpL16-k0 (antibody, human IgG1, kappa)
heavy 1: not shown
heavy 2: not shown
light: B1 light
notes: as for B1
B24: GpH7-A5/GpH7-B3 variant K326_14T/GpL16-k0 (antibody, human IgG1, kappa)
heavy 1: not shown
heavy 2: not shown
light: B1 light
notes: as for B1
B25: GpH7-A5/GpH7-B3 variant V266_06M/GpL16-k0 (antibody, human IgG1, kappa)
heavy 1: not shown
heavy 2: not shown
light: B1 light
notes: as for B1
B26: GpH7-A5/GpH7-B3 variant S267_01G/GpL16-k0 (antibody, human IgG1, kappa)
heavy 1: not shown
heavy 2: not shown
light: B1 light
notes: as for B1
B27: GpH7-A5/GpH7-B3 variant Y296_20W/GpL16-k0 (antibody, human IgG1, kappa)
heavy 1: not shown
heavy 2: not shown
light: B1 light
notes: as for B1

Legend:
FcγRIIa R [1] = target: T1, FcγRIIa R; experiment: SPR (Biacore), antibody captured via antigen peptide, FcγRIIa R as analyte; heterodimerized antibody
Description: (§1) Analysis of interaction between objective antibody and the FcγR was carried out using Biacore T100 (GE Healthcare). HBS-EP+ (GE Healthcare) was used as the running buffer, and the measurement temperature was set to 25° C. Chips produced by immobilizing the antigen peptide by the amine coupling method to a Series S Sencor Chip CM5 (GE Healthcare), or alternatively, chips produced by allowing preliminarily biotinylated antigen peptides to interact with and immobilize onto a Series S Sensor Chip SA (certified) (GE Healthcare) were used. Antibodies of interest were captured onto an antigen peptide-immobilized chip, and allowed to interact to each FcγR diluted with running buffer. To regenerate and repeatedly use the chip, the antibodies captured on the chip were washed off by reacting 10 mM glycine-HCl, pH 1.5.

FcγRIIa R [2] = target: T1, FcγRIIa R; experiment: SPR (Biacore), antibody captured via antigen peptide, FcγRIIa R as analyte; homodimerized antibody
Description: as §1

Binder | He/Con_2aR (FcγRIIa R [1]) | Ho/Con_2aR (FcγRIIa R [2])
B1 | 108 % of control (GpH7-A5/GpH7-B3/GpL16-k0 = 100) | 
B2 | 124 % of control (GpH7-A5/GpH7-B3/GpL16-k0 = 100) | 
B3 |  | 109 % of control (GpH7-B3/GpL16-k0 = 100)
B4 | 108 % of control (GpH7-A5/GpH7-B3/GpL16-k0 = 100) | 
B5 | 110 % of control (GpH7-A5/GpH7-B3/GpL16-k0 = 100) | 
B6 | 120 % of control (GpH7-A5/GpH7-B3/GpL16-k0 = 100) | 
B7 |  | 107 % of control (GpH7-B3/GpL16-k0 = 100)
B8 | 106 % of control (GpH7-A5/GpH7-B3/GpL16-k0 = 100) | 
B9 | 138 % of control (GpH7-A5/GpH7-B3/GpL16-k0 = 100) | 
B10 | 115 % of control (GpH7-A5/GpH7-B3/GpL16-k0 = 100) | 
B11 | 114 % of control (GpH7-A5/GpH7-B3/GpL16-k0 = 100) | 
B12 | 155 % of control (GpH7-A5/GpH7-B3/GpL16-k0 = 100) | 
B13 | 138 % of control (GpH7-A5/GpH7-B3/GpL16-k0 = 100) | 
B14 | 108 % of control (GpH7-A5/GpH7-B3/GpL16-k0 = 100) | 
B15 | 128 % of control (GpH7-A5/GpH7-B3/GpL16-k0 = 100) | 
B16 | 129 % of control (GpH7-A5/GpH7-B3/GpL16-k0 = 100) | 
B17 |  | 102 % of control (GpH7-B3/GpL16-k0 = 100)
B18 | 116 % of control (GpH7-A5/GpH7-B3/GpL16-k0 = 100) | 
B19 | 148 % of control (GpH7-A5/GpH7-B3/GpL16-k0 = 100) | 
B20 | 148 % of control (GpH7-A5/GpH7-B3/GpL16-k0 = 100) | 
B21 | 117 % of control (GpH7-A5/GpH7-B3/GpL16-k0 = 100) | 
B22 | 128 % of control (GpH7-A5/GpH7-B3/GpL16-k0 = 100) | 
B23 | 136 % of control (GpH7-A5/GpH7-B3/GpL16-k0 = 100) | 
B24 | 134 % of control (GpH7-A5/GpH7-B3/GpL16-k0 = 100) | 
B25 | 150 % of control (GpH7-A5/GpH7-B3/GpL16-k0 = 100) | 
B26 | 113 % of control (GpH7-A5/GpH7-B3/GpL16-k0 = 100) | 
B27 | 110 % of control (GpH7-A5/GpH7-B3/GpL16-k0 = 100) | 
